# Data as given in PMC6640694 (Antibodies, 2019).
# Target: T1, recombinant His-tagged human OX40 extracellular domain (Homo sapiens, UniProt P43489)
# Experiment: not given
# Conditions: not given
# T1 sequence (P43489 29-214): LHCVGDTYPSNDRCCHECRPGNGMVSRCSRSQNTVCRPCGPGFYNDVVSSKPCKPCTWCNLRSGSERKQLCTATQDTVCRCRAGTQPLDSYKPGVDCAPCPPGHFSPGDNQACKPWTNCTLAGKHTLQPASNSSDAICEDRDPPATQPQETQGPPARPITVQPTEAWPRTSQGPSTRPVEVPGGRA
row,Binder,Kd [nM]
1,"tOX40.19 (S-CL-LN-4) (antibody, V domains shown) VH: QVQLVESGGGVVQPGRSLRLSCAASGFTFSTYGMHWVRQAPGKGLEWVAVIWYDGSNKYYADSVKGRFTISRDNSKNTLYLQMNSLRAEDTAVYYCARTHYDILTGPNWFDPWGQGTLVTVSS VL: DIQMTQSPSSLSASVGDRVTITCRASQDIRNDLGWYQQKPGKAPKRLIYAASSLQSGVPSRFSGSGSGTEFTLTISSLQPEDFATYYCLQHNSYPFTFGPGTKVDIK",7.7
2,"tOX40.15 (S-S-Sp-6) (antibody, V domains shown) VH: QVQLVESGGGVVQPGRSLRLSCAASGFTFSSYGMHWVRQAPGKGLEWVAIIWYDGSNKYYADSVKGRFTISRDNSKNTLYLQMNSLRAEDTAVYFCAREGDYYGSGSYYPLDYYYYGMDVWGQGTTVTVSS VL: DIQLTQSPSFLSASVGDRVTITCRASQGISSYLAWYQQKPGKAPKLLIYAASTLQSGVPSRFSGSGSGTEFTLTISSLQPEDFATYYCQQLNSFPRTFGQGTKVEIK",6
3,"tOX40.31 (S-CL-LN-11) (antibody, V domains shown) VH: QVQLQESGPGLVKPSETLSLTCTVSGDSISFYYWSWIRQPPGKGLEWIGCIYYSGSTNYNPSLKSRVTISVDTSKNQFSLKLNSVTAADTAVYYCARRLWFGVFDYWGQGTLVPVSS VL: not shown",22.4
4,"tOX40.39 (S-CL-LN-1) (antibody, V domains shown) VH: EVQLVESGGGLVQPGGSLRLSCAASGFTFSNYAMTWVRQAPGKGLEWVSTISGSGGSTYYADSVKGRFTISRDNSKNTLYLQMNSLRAEDTAVYYCAKADCGDNCYSFFDYWGQGTLVTVSS VL: DIQMTQSPSSLSASVGDRVTITCRASQGISNWLAWYQQKPEKAPKSLIYAASSLQSGVPSRFSGSGSGTDFTLTISSLQPEDFATYYCQQYNSYPPTFGRGTKVEIK",90
5,"tOX40.37 (S-S-Sp-10/S-CL-Sp-1) (antibody, V domains shown) VH: not shown VL: DIQMTQSPSSLSASVGDRVTITCRASQGISSWLAWYQQKPEKAPKSLIYAASSLQSGVPSRFSGSGSGTDFTLTISSLQPEDFATYYCQQYNSYPPTFGQGTKVEIK",12.5
6,"tOX40.41 (S-CL-LN-9) (antibody, V domains shown) VH: QVQLQESGPGLVKPSETLSLTCTVSGGSISSYYWSWIRQPPGKGLEWIGYIYYSGSTNYNPSLKSRVTISVDTSKNQFSLKLSSVTAADTAVYYCARYYDILTVWDWFDPWGQGTLVTVSS VL: DIQMTQSPSSLSASVGDRVTITCRASQGISSWLAWYQQKPGKAPKSLIYAASSLQSGVPSRFSGSGSGTDFTLTISSLQPEDFATYYCQQYNSYPITFGQGTRLEIK",58.4
7,"tOX40.22 (S-CL-LN-5) (antibody, V domains shown) VH: QVQLVESGGGVVQPGRSLRLSCAASGFTFSNYGMHWVRQAPGKGLEWVAVIWLDGSNKYYADSVKGRFTISRDNSKNTLYLQMNSLRAEDTAVYYCARAAAGSLYYGMDVWGQGTTVTVSS VL: DIQMTQSPSSLSASVGDRVTITCRASQGINTWLAWYQQKPEKAPKSLIYAASSLQSGVPSRFSGSGSGTDFTLTISSLQPEDFATYYCQQYYSYPWTFGQGTKVEIR",7.3
8,"tOX40.35 (S-S-Sp-3) (antibody, V domains shown) VH: QVQLVQSGAEVKKPGASVKVSCKASGYTFTSYGITWVRQAPGQGLEWVGWISAYNGNTNYAQKLQGRVTMTTDTSTSTAYMELRSLRSDDTAVYYCARDFAGGSYYFDYWGQGTLVTVSS VL: not shown",2.7
9,"tOX40.4 (S-S-Sp-1/S-CL-Sp-2) (antibody, V domains shown) VH: QVQLVQSGAEVKKPGASVKVSCKVSGYTLTELSMHWVRQAPGKGLEWMGGFDPKDGETIYAQKFQGRVTMTEDTSTDTAYMELSSLRSEDTAVYYCSTGYCSTTSCGGFDPWGQGTLVTVSS VL: not shown",9
10,"tOX40.21 (S-CL-LN-2) (antibody, V domains shown) VH: QVQLVESGGGVVQPGRSLRLSCAASGFTFSNYGMHWVRQAPGKGLEWVAVIWYDGSNKYYADSVKGRFTISRDNSKNTLYLQMNSLRAEDTAVYYCARNGDSYFDYWGQGTLVTVSS VL: not shown",7
11,"tOX40.40 (S-CL-LN-7) (antibody, V domains shown) VH: QVQLVESGGDVVQPGMSLRLSCAASGFTFSDYGMHWVRQAPGKGLEWVAVIWYDGSNKYYEDSVKGRFTISRDNSKNTLYLQMNSLRAEDTAVYYCTRAGFGESGYGMDVWGQGTTVTVSS VL: DIQMTQSPSSLSASVGDRVTITCRASQGISNYLAWYQQKPGKVPKLLIYAASTLQSGVPSRFSGSGSGTDFTLTISSLQPEDVATYYCQKYHSAPWTFGQGTKVEIK",151
12,"tOX40.23 (S-CL-LN-8) (antibody, V domains shown) VH: QVQLVESGGGVVQPGRSLRLSCAASGFTFSNYGMHWVRQAPGKGLEWVAVIWYDGSKKYYADSVKGRFTISRDNSKNTLYLQMNSLRAEDTAVYYCARAGFGESGYGMDVWGQGTTVTVSS VL: DIQMTQSPSSLSASVGDRVTFTCRASQGINNYLAWYQQKPGKVPKLLIYAASTLQSGVPSRFSGSGSGTDFTLTISSLQPEDVATYYCQKYYSAPWTFGQGTKVEVK",5.2

# Target: T2, human OX40 expressed on Flp-In CHO cells (Homo sapiens, UniProt P43489)
# Experiment: cell-based or functional assay
# Conditions: not given
# T2 sequence (P43489 29-277): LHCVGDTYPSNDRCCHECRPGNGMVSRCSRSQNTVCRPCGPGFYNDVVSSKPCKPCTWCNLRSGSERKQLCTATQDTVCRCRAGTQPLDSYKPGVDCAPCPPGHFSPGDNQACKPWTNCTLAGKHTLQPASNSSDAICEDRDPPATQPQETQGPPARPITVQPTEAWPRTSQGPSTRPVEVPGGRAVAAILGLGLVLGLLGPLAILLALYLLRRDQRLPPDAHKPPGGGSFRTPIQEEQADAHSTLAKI
row,Binder,Promega In Vitro Assay EC50 (Agonist): luminescence of OX40-expressing Jurkat cells with FcγRIIB/CHO-K1 cells [µg/mL]
1,"tOX40.24 (antibody, V domains shown, human IgHG1 constant domains; kappa; source: ExpiCHO, transiently transfected; quantified in the supernatants) VH: QVQLVESGGGVVQPGRSLRLSCAASGFTFRSYGMHWVRQAPGKGLEWLAIIWYDGSNKYYADSVKGRLTISRDNSKNTLYLQMNSLRAEDTAVYYCARDTQVAEAGFPHHHYYGMDVWGQGTTVTVSS VL: not shown",0.024

# Target: T1, recombinant His-tagged human OX40 …
# Experiment: BLI; Octet Red96; 5 μg/mL antibody loaded onto Protein A biosensor, dipped into His-tagged OX40 extracellular domain at 200, 100 and 50 nM or 1600, 800 and 400 nM; 1:1 binding model, global fit
# Conditions: one partner purified
row,Binder,Kd [nM]
1,"tOX40.24 (antibody, V domains shown, human IgHG1 constant domains; kappa; source: ExpiCHO, transiently transfected; quantified in the supernatants) VH: QVQLVESGGGVVQPGRSLRLSCAASGFTFRSYGMHWVRQAPGKGLEWLAIIWYDGSNKYYADSVKGRLTISRDNSKNTLYLQMNSLRAEDTAVYYCARDTQVAEAGFPHHHYYGMDVWGQGTTVTVSS VL: not shown",22.9

# Target: T2, human OX40 expressed on Flp-In CHO cells
# Experiment: flow cytometry on cells; one million CHO cells (1:1 mix of OX40-expressing and PD-1-expressing negative control cells) stained with 1 μg mAb in 100 μL MACS Buffer (DPBS, 0.5% BSA, 2 mM EDTA), 30 min, 4 °C; detected with anti-human IgG Fc-PE
# Conditions: partners not purified
row,Binder,binding result
1,"tOX40.63 (antibody, V domains shown, human IgHG1 constant domains; kappa; source: ExpiCHO, transiently transfected; quantified in the supernatants) VH: QVQLVQSGAEVKKPGASVKVSCKVSGYTLTELSMHWVRQAPGKGLEWMGGFDPEDGETIYAQKFQGRVTMTEDTSTDTAYMELSSLRSEDTAVYYCAANWGSDYYYGMDVWGQGTTVTVSS VL: AIQLTQSPSSLSASVGDRVTITCRASQGISSALAWYQQKPGKAPKLLIYDASSLESGVPSRFSGSGSGTDFTLTISSLQPEDFATYYCQQFNNYPRTFGQGTKVEIK",no binding (tested: 1 μg of anti-OX40 mAb in 100 μL)
